Assays:
[1] = substrate: CC(=O)O; experiment: cells, lysate or membranes; format: cell-based, Homo sapiens; conditions: Na+ competes with nicotinate for uptake via SLC5A8
[2] = substrate: O=C(O)C(Cl)Cl; experiment: cells, lysate or membranes; format: cell-based, Homo sapiens; conditions: Na+ competes with nicotinate for uptake via SLC5A8

B1: SLC5A8 (Homo sapiens) (protein)
chain: MDTPRGIGTFVVWDYVVFAGMLVISAAIGIYYAFAGGGQQTSKDFLMGGRRMTAVPVALSLTASFMSAVTVLGTPSEVYRFGAIFSIFAFTYFFVVVISAEVFLPVFYKLGITSTYEYLELRFNKCVRLCGTVLFIVQTILYTGIVIYAPALALNQVTGFDLWGAVVATGVVCTFYCTLGGLKAVIWTDVFQVGIMVAGFASVIIQAVVMQGGISTILNDAYDGGRLNFWNFNPNPLQRHTFWTIIIGGTFTWTSIYGVNQSQVQRYISCKSRFQAKLSLYINLVGLWAILTCSVFCGLALYSRYHDCDPWTAKKVSAPDQLMPYLVLDILQDYPGLPGLFVACAYSGTLSTVSSSINALAAVTVEDLIKPYFRSLSERSLSWISQGMSVVYGALCIGMAALASLMGALLQAALSVFGMVGGPLMGLFALGILVPFANSIGALVGLMAGFAISLWVGIGAQIYPPLPERTLPLHLDIQGCNSTYNETNLMTTTEMPFTTSVFQIYNVQRTPLMDNWYSLSYLYFSTVGTLVTLLVGILVSLSTGGRKQNLDPRYILTKEDFLSNFDIFKKKKHVLSYKSHPVEDGGTDNPAFNHIELNSDQSGKSNGTRL
Km [1]: 1.6 ± 0.1 mM | Km [2]: 36 ± 7 µM

Reference: article PMC3140604
